# Experimental data from patent US20140274782A1, “AFFINITY REAGENTS AND METHODS FOR DETECTION, PURIFICATION, AND PROTEOMIC ANALYSIS OF METHYLATED PROTEINS” (The Board of Trustees of the Leland Stanford Junior …, priority 2013, published 2014).
# T1: G9a and GLP (Homo sapiens, UniProt Q96KQ7+Q9H9B1)
# T1 sequence (Q96KQ7 2-1210 limits assumed): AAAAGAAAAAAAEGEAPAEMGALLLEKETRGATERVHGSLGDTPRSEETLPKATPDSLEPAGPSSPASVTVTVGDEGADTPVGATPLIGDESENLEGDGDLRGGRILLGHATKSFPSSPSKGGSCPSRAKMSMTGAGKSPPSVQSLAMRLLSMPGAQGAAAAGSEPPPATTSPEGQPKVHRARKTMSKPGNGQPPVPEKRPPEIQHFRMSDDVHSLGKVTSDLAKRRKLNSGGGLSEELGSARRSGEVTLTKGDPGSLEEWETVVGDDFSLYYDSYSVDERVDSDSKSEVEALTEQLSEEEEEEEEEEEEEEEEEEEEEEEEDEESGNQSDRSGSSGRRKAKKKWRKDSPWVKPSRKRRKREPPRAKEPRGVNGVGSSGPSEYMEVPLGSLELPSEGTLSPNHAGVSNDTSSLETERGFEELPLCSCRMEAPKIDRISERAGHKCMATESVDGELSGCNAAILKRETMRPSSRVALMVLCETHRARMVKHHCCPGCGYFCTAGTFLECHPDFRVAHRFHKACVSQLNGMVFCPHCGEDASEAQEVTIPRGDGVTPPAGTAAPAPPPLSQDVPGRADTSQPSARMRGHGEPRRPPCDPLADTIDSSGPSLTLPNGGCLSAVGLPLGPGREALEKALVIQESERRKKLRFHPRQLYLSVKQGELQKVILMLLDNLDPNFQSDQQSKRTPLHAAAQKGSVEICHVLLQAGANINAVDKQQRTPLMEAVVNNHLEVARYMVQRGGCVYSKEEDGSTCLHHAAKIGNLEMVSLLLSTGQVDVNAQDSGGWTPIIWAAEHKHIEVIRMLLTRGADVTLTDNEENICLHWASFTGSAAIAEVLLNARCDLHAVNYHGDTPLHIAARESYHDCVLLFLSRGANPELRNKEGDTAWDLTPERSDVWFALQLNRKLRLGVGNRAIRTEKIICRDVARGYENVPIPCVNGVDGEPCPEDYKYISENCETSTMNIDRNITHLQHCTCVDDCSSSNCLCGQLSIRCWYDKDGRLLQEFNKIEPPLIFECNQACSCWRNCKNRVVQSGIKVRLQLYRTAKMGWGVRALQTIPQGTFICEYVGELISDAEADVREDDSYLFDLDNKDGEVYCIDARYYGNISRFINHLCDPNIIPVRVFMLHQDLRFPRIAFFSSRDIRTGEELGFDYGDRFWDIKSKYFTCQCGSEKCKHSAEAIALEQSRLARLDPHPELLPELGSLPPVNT
# T1 sequence (Q9H9B1 2-1298 limits assumed): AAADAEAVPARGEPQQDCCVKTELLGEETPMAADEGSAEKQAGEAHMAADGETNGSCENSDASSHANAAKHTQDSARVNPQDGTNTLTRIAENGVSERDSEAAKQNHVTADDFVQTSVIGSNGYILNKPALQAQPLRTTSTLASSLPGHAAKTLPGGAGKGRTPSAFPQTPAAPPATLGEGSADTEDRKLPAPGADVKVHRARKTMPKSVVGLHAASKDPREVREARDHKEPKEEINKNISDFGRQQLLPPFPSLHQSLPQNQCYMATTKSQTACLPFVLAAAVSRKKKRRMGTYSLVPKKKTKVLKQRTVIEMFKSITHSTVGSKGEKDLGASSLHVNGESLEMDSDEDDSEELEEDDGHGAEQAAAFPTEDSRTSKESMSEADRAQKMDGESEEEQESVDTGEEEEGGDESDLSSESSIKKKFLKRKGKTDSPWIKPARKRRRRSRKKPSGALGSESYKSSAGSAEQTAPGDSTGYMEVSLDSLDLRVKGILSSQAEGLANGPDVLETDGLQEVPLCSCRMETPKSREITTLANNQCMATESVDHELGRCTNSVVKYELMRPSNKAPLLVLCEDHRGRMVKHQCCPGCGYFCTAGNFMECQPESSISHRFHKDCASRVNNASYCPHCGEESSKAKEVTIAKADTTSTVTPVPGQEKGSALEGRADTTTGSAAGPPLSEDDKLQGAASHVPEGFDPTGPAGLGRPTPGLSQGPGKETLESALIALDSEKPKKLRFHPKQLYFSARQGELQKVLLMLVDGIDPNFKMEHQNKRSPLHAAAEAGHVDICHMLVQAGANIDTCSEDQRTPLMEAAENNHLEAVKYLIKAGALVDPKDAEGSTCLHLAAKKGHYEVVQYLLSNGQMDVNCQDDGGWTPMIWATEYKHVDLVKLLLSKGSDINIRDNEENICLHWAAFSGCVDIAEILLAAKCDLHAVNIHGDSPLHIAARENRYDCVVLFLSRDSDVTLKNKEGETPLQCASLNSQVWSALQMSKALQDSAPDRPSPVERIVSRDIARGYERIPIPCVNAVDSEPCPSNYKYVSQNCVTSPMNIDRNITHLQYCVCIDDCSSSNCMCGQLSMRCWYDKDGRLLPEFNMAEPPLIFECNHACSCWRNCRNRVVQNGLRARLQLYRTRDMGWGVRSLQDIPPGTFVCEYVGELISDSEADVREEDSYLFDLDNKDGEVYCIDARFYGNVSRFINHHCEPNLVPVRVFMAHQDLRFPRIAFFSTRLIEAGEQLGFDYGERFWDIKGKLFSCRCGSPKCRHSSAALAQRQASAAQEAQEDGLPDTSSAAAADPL
# What was measured:
# G9a and GLP = target: T1, G9a and GLP; assay: Triple SILAC pull-down after UNC0638 treatment of 293T cells, DMSO/UNC0638 ratio of protein captured by 3×MBT; type: cell-based; design: endogenous in cells; host or cells: HEK 293T; conditions: for Relative to UNC0638 UNC Heavy / Relative to UNC0638 UNC Light: SILAC ratio DMSO/UNC0638 of protein pulled down with 3xMBT; for Relative to UNC0638 UNC Heavy: UNC0638 in heavy SILAC media; for Relative to UNC0638 UNC Light: UNC0638 in light SILAC media; for Relative to UNC0638 Average: average of UNC Light and UNC Heavy experiments;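 as to all read-outs here: mass spectrometry (Q-Exactive) SILAC quantitation, DMSO/UNC0638 ratio computed after subtracting 3×MBTD355N mutant pull-down background, only proteins with at least twofold 3×MBT over mutant signal considered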
# 3×MBT domain of L3MBTL1 = assay: Triple SILAC pull-down, 3xMBT/3xMBTD355N ratio (cytoplasmic, nuclear and chromatin fractions of 293T cells); type: binding, human; conditions: SILAC ratio, pull-down 3xMBT vs 3xMBTD355N; for 3xMBT/D355N UNC Heavy: experiment with UNC0638 in heavy SILAC media; for 3xMBT/D355N UNC Light: experiment with UNC0638 in light SILAC media;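 as to all read-outs here: proteins quantified with MaxQuant, requiring at least two unique peptides and quantification in both label directions, normalized to the mean of proteins from a digested loading control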
Relative to UNC0638 UNC Heavy (G9a and GLP),Relative to UNC0638 UNC Light (G9a and GLP),Relative to UNC0638 Average (G9a and GLP),Molecule,3xMBT/D355N UNC Heavy (3×MBT domain of L3MBTL1),3xMBT/D355N UNC Light (3×MBT domain of L3MBTL1)
,0.13 log base 2,0.13 log base 2,"UBA1 (protein, UniProt P22314 2-1058, looked up) Ubiquitin-like …: SSSPLSKKRRVSGPDPKPGSNCSPAQSVLSEVPSVPTNGMAKNGSEADIDEGLYSRQLYVLGHEAMKRLQTSSVLVSGLRGLGVEIAKNIILGGVKAVTLHDQGTAQWADLSSQFYLREEDIGKNRAEVSQPRLAELNSYVPVTAYTGPLVEDFLSGFQVVVLTNTPLEDQLRVGEFCHNRGIKLVVADTRGLFGQLFCDFGEEMILTDSNGEQPLSAMVSMVTKDNPGVVTCLDEARHGFESGDFVSFSEVQGMVELNGNQPMEIKVLGPYTFSICDTSNFSDYIRGGIVSQVKVPKKISFKSLVASLAEPDFVVTDFAKFSRPAQLHIGFQALHQFCAQHGRPPRPRNEEDAAELVALAQAVNARALPAVQQNNLDEDLIRKLAYVAAGDLAPINAFIGGLAAQEVMKACSGKFMPIMQWLYFDALECLPEDKEVLTEDKCLQRQNRYDGQVAVFGSDLQEKLGKQKYFLVGAGAIGCELLKNFAMIGLGCGEGGEIIVTDMDTIEKSNLNRQFLFRPWDVTKLKSDTAAAAVRQMNPHIRVTSHQNRVGPDTERIYDDDFFQNLDGVANALDNVDARMYMDRRCVYYRKPLLESGTLGTKGNVQVVIPFLTESYSSSQDPPEKSIPICTLKNFPNAIEHTLQWARDEFEGLFKQPAENVNQYLTDPKFVERTLRLAGTQPLEVLEAVQRSLVLQRPQTWADCVTWACHHWHTQYSNNIRQLLHNFPPDQLTSSGAPFWSGPKRCPHPLTFDVNNPLHLDYVMAAANLFAQTYGLTGSQDRAAVATFLQSVQVPEFTPKSGVKIHVSDQELQSANASVDDSRLEELKATLPSPDKLPGFKMYPIDFEKDDDSNFHMDFIVAASNLRAENYDIPSADRHKSKLIAGKIIPAIATTTAAVVGLVCLELYKVVQGHRQLDSYKNGFLNLALPFFGFSEPLAAPRHQYYNQEWTLWDRFEVQGLQPNGEEMTLKQFLDYFKTEHKLEITMLSQGVSMLYSFFMPAAKLKERLDQPMTEIVSRVSKRKLGRHVRALVLELCCNDESGEDVEVPYVRYTIR",0.55 log base 2,2.51 log base 2
0.28 log base 2,−0.02 log base 2,0.13 log base 2,"HNRNPF (protein, UniProt P52597 1-415, looked up) Heterogeneous nuclear …: MMLGPEGGEGFVVKLRGLPWSCSVEDVQNFLSDCTIHDGAAGVHFIYTREGRQSGEAFVELGSEDDVKMALKKDRESMGHRYIEVFKSHRTEMDWVLKHSGPNSADSANDGFVRLRGLPFGCTKEEIVQFFSGLEIVPNGITLPVDPEGKITGEAFVQFASQELAEKALGKHKERIGHRYIEVFKSSQEEVRSYSDPPLKFMSVQRPGPYDRPGTARRYIGIVKQAGLERMRPGAYSTGYGGYEEYSGLSDGYGFTTDLFGRDLSYCLSGMYDHRYGDSEFTVQSTTGHCVHMRGLPYKATENDIYNFFSPLNPVRVHIEIGPDGRVTGEADVEFATHEEAVAAMSKDRANMQHRYIELFLNSTTGASNGAYSSQVMQGMGVSAAQATYSGLESQSVSGCYGAGYSGQNSMGGYD",1.66 log base 2,2.25 log base 2

# Further lines, the molecule ahead of its results:
Molecule,Relative to UNC0638 UNC Heavy (G9a and GLP),Relative to UNC0638 UNC Light (G9a and GLP),Relative to UNC0638 Average (G9a and GLP),3xMBT/D355N UNC Heavy (3×MBT domain of L3MBTL1),3xMBT/D355N UNC Light (3×MBT domain of L3MBTL1)
"CAPRIN1 (protein, UniProt Q14444 2-709, looked up) Caprin-1: PSATSHSGSGSKSSGPPPPSGSSGSEAAAGAGAAAPASQHPATGTGAVQTEAMKQILGVIDKKLRNLEKKKGKLDDYQERMNKGERLNQDQLDAVSKYQEVTNNLEFAKELQRSFMALSQDIQKTIKKTARREQLMREEAEQKRLKTVLELQYVLDKLGDDEVRTDLKQGLNGVPILSEEELSLLDEFYKLVDPERDMSLRLNEQYEHASIHLWDLLEGKEKPVCGTTYKVLKEIVERVFQSNYFDSTHNHQNGLCEEEEAASAPAVEDQVPEAEPEPAEEYTEQSEVESTEYVNRQFMAETQFTSGEKEQVDEWTVETVEVVNSLQQQPQAASPSVPEPHSLTPVAQADPLVRRQRVQDLMAQMQGPYNFIQDSMLDFENQTLDPAIVSAQPMNPTQNMDMPQLVCPPVHSESRLAQPNQVPVQPEATQVPLVSSTSEGYTASQPLYQPSHATEQRPQKEPIDQIQATISLNTDQTTASSSLPAASQPQVFQAGTSKPLHSSGINVNAAPFQSMQTVFNMNAPVPPVNEPETLKQQNQYQASYNQSFSSQPHQVEQTELQQEQLQTVVGTYHGSPDQSHQVTGNHQQPPQQNTGFPRSNQPYYNSRGVSRGGSRGARGLMNGYRGPANGFRGGYDGYRPSFSNTPNSGYTQSQFSAPRDYSGYQRDGYQQNFKRGSGQSGPRGAPRGRGGPPRPNRGMPQMNTQQVN",−1.08 log base 2,1.34 log base 2,0.13 log base 2,2.45 log base 2,4.36 log base 2
"FTSJD2 (protein, UniProt Q8IYT2 1-770, looked up) Cap-specific mRNA …: MSKCRKTPVQQLASPASFSPDILADIFELFAKNFSYGKPLNNEWQLPDPSEIFTCDHTELNAFLDLKNSLNEVKNLLSDKKLDEWHEHTAFTNKAGKIISHVRKSVNAELCTQAWCKFHEILCSFPLIPQEAFQNGKLNSLHLCEAPGAFIASLNHYLKSHRFPCHWSWVANTLNPYHEANDDLMMIMDDRLIANTLHWWYFGPDNTGDIMTLKFLTGLQNFISSMATVHLVTADGSFDCQGNPGEQEALVSSLHYCEVVTALTTLGNGGSFVLKMFTMFEHCSINLMYLLNCCFDQVHVFKPATSKAGNSEVYVVCLHYKGREAIHPLLSKMTLNFGTEMKRKALFPHHVIPDSFLKRHEECCVFFHKYQLETISENIRLFECMGKAEQEKLNNLRDCAIQYFMQKFQLKHLSRNNWLVKKSSIGCSTNTKWFGQRNKYFKTYNERKMLEALSWKDKVAKGYFNSWAEEHGVYHPGQSSILEGTASNLECHLWHILEGKKLPKVKCSPFCNGEILKTLNEAIEKSLGGAFNLDSKFRPKQQYSCSCHVFSEELIFSELCSLTECLQDEQVVVPSNQIKCLLVGFSTLRNIKMHIPLEVRLLESAELTTFSCSLLHDGDPTYQRLFLDCLLHSLRELHTGDVMILPVLSCFTRFMAGLIFVLHSCFRFITFVCPTSSDPLRTCAVLLCVGYQDLPNPVFRYLQSVNELLSTLLNSDSPQQVLQFVPMEVLLKGALLDFLWDLNAAIAKRHLHFIIQREREEIINSLQLQN",0.09 log base 2,0.17 log base 2,0.13 log base 2,2.92 log base 2,3.09 log base 2
